The record followed here is IntAct's records for PubMed 18256029.

Chain of pdcd6_human PDCD6 (O75340 whole entry): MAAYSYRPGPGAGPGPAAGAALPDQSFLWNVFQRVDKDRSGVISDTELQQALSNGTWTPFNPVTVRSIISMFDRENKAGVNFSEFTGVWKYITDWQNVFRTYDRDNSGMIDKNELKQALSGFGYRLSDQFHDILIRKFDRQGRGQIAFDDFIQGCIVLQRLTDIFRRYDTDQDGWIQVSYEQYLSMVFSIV
Chain of Phospholipid scramblase 3 (Homo sapiens), Q9NRY6 F49Y (Q9NRY6 whole entry F49Y): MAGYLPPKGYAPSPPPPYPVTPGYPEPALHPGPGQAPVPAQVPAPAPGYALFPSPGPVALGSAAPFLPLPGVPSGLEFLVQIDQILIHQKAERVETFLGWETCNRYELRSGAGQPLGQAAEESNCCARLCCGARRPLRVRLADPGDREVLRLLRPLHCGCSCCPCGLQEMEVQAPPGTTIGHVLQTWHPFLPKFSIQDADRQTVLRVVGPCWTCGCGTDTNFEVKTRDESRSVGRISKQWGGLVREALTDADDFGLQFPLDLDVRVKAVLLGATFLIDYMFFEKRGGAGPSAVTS
Chain of Phospholipid scramblase 3 (Homo sapiens), Q9NRY6 P43A;P45A;P47A;P53A (Q9NRY6 whole entry P43A/P45A/P47A/P53A): as the sequence (Q9NRY6 whole entry F49Y) above, with P43A, P45A, P47A, Y49F, P53A counted along it
Chain of Phospholipid scramblase 3 (Homo sapiens), Q9NRY6 F49L (Q9NRY6 whole entry F49L): as the sequence (Q9NRY6 whole entry F49Y) above, with Y49L counted along it
Chain of Phospholipid scramblase 3 (Homo sapiens), Q9NRY6 F49A (Q9NRY6 whole entry F49A): as the sequence (Q9NRY6 whole entry F49Y) above, with Y49A counted along it
Chain of Phospholipid scramblase 3 (Homo sapiens), Q9NRY6 F49A;F52A (Q9NRY6 whole entry F49A/F52A): as the sequence (Q9NRY6 whole entry F49Y) above, with Y49A, F52A counted along it

The experiment concerns the target pdcd6_human PDCD6 (UniProt O75340).
Turning to “Phospholipid scramblase 3 (Homo sapiens), Q9NRY6 F49A”, the “effect of a mutation on the interaction” value is reported as “decreasing interaction”.

On to “Phospholipid scramblase 3 (Homo sapiens), Q9NRY6 F49A;F52A”, for which the “effect of a mutation on the interaction” value was “disrupting interaction”.

As for “Phospholipid scramblase 3 (Homo sapiens), Q9NRY6 F49L”, the “effect of a mutation on the interaction” value is recorded as “decreasing interaction”.

For “Phospholipid scramblase 3 (Homo sapiens), Q9NRY6 F49Y”, the “effect of a mutation on the interaction” value is on record as “decreasing interaction”.

As for “Phospholipid scramblase 3 (Homo sapiens), Q9NRY6 P43A;P45A;P47A;P53A”, the “effect of a mutation on the interaction” value is “decreasing interaction”.
